Data: patent US20100098708A1 (AstraZeneca / MedImmune, published 2010)
Values joined by “and” are separate entries in the source; they are usually repeats but may differ in a detail not shown here. Equal entries are not always repeated.

The binders below were run against RSV F protein (immobilised antigen of Example 6.1) (respiratory syncytial virus) (assay: BIAcore).
Chain of RSV F protein (immobilised antigen of Example 6.1) (respiratory syncytial virus) (P03420 26-524): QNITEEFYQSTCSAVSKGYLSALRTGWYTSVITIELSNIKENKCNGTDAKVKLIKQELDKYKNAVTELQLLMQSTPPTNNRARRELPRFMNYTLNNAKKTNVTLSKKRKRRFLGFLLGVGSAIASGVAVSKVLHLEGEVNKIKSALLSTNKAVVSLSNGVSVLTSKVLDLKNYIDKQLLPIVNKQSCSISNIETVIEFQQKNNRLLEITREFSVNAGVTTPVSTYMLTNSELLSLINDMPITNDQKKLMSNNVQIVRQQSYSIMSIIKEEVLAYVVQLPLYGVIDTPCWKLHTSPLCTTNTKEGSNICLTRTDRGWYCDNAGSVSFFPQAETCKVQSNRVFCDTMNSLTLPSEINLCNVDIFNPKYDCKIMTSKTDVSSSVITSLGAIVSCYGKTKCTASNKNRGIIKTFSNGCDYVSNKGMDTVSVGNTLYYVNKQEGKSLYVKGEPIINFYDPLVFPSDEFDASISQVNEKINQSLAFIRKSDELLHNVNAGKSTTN

| Binder | koff | kon |
| --- | --- | --- |
| P11d4 Fab (Fab, V domains shown, Fab) VH: QVTLRESGPALVKPTQTLTLTCTFSGFSLSTPGMSVGWIRQPPGKALEWLADIWWDGKKHYNPSLKDRLTISKDTSKNQVVLKVTNMDPADTATYYCARDMIFNWYFDVWGQGTTVTVSS VL: DIQMTQSPSTLSASVGDRVTITCSPSSRVGYMHWYQQKPGKAPKLLIYDTMRLASGVPSRFSGSGSGTEFTLTISSLQPDDFATYYCFQGSGYPFTFGGGTKVEIK | 0.000717 s⁻¹ | 570000 M⁻¹ s⁻¹ and 572000 M⁻¹ s⁻¹ |
| P12f2 Fab (Fab, V domains shown, Fab) VH: QVTLRESGPALVKPTQTLTLTCTFSGFSLSTPGMSVGWIRQPPGKALEWLADIWWDDKKHYNPSLKDRLTISKDTSKNQVVLKVTNMDPADTATYYCARDMIFNFYFDVWGQGTTVTVSS VL: DIQMTQSPSTLSASVGDRVTITCSLSSRVGYMHWYQQKPGKAPKLLIYDTFYLSSGVPSRFSGSGSGTEFTLTISSLQPDDFATYYCFQGSGYPFTFGGGTKVEIK | 0.000282 s⁻¹ | 663000 M⁻¹ s⁻¹ |
| A12a6 Fab (Fab, V domains shown, Fab) VH: QVTLRESGPALVKPTQTLTLTCTFSGFSLSTAGMSVGWIRQPPGKALEWLADIWWDGKKDYNPSLKDRLTISKDTSKNQVVLKVTNMDPADTATYYCARDMIFNFYFDVWGQGTTVTVSS VL: DIQMTQSPSTLSASVGDRVTITCSASSRVGYMHWYQQKPGKAPKLLIYDTFKLSSGVPSRFSGSGSGTEFTLTISSLQPDDFATYYCFQGSGYPFTFGGGTKVEIK | 0.00023 s⁻¹ | 743000 M⁻¹ s⁻¹ |
| A1e9 Fab (Fab, V domains shown, Fab; also called Ale9) VH: QVTLRESGPALVKPTQTLTLTCTFSGFSLSTAGMSVGWIRQPPGKALEWLADIWWDGKKHYNPSLKDRLTISKDTSKNQVVLKVTNMDPADTATYYCARDMIFNWYFDVWGQGTTVTVSS VL: DIQMTQSPSTLSASVGDRVTITCSLSSRVGYMHWYQQKPGKAPKLLIYDTFKLSSGVPSRFSGSGSGTEFTLTISSLQPDDFATYYCFQGSGYPFTFGGGTKVEIK | 0.000453 s⁻¹ | 790000 M⁻¹ s⁻¹ |
| A13c4 Fab (Fab, V domains shown, Fab) VH: QVTLRESGPALVKPTQTLTLTCTFSGFSLSTAGMSVGWIRQPPGKALEWLADIWWDGKKSYNPSLKDRLTISKDTSKNQVVLKVTNMDPADTATYYCARDMIFNFYFDVWGQGTTVTVSS VL: DIQMTQSPSTLSASVGDRVTITCSLSSRVGYMHWYQQKPGKAPKLLIYDTMYQSSGVPSRFSGSGSGTEFTLTISSLQPDDFATYYCFQGSGYPFTFGGGTKVEIK | 0.00028 s⁻¹ | 781000 M⁻¹ s⁻¹ and 735000 M⁻¹ s⁻¹ |
| A13a11 Fab (Fab, V domains shown, Fab) VH: QVTLRESGPALVKPTQTLTLTCTFSGFSLSTAGMSVGWIRQPPGKALEWLADIWWDDKKHYNPSLKDRLTISKDTSKNQVVLKVTNMDPADTATYYCARDMIFNWYFDVWGQGTTVTVSS VL: DIQMTQSPSTLSASVGDRVTITCSPSSRVGYMHWYQQKPGKAPKLLIYDTYRHSSGVPSRFSGSGSGTEFTLTISSLQPDDFATYYCFQGSGYPFTFGGGTKVEIK | 0.00025 s⁻¹ | 735000 M⁻¹ s⁻¹ |
| AFFF(1) Fab (Fab, V domains shown, Fab; also called AHH(1)) VH: QVTLRESGPALVKPTQTLTLTCTFSGFSLSTAGMSVGWIRQPPGKALEWLADIWWDDKKDYNPSLKSRLTISKDTSKNQVVLKVTNMDPADTATYYCARSMITNFYFDVWGQGTTVTVSS VL: DIQMTQSPSTLSASVGDRVTITCSASSSVGYMHWYQQKPGKAPKLLIYDTFKLASGVPSRFSGSGSGTEFTLTISSLQPDDFATYYCFQGSFYPFTFGGGTKVEIK | 0.000245 s⁻¹ and 0.000446 s⁻¹ and 0.000268 s⁻¹ | 212000 M⁻¹ s⁻¹ and 156000 M⁻¹ s⁻¹ and 186000 M⁻¹ s⁻¹ |
| 1X-493L1FR Fab (Fab, V domains shown, also called IX-493L1FR) VH: QVTLRESGPALVKPTQTLTLTCTFSGFSLSTSGMSVGWIRQPPGKALEWLADIWWDDKKDYNPSLKSRLTISKDTSKNQVVLKVTNMDPADTATYYCARSMITNWYFDVWGQGTTVTVSS VL: DIQMTQSPSTLSASVGDRVTITCSASSSVGYMHWYQQKPGKAPKLLIYDTSKLASGVPSRFSGSGSGTEFTLTISSLQPDDFATYYCFQGSGYPFTFGGGTKVEIK | 0.00065 s⁻¹ | 185000 M⁻¹ s⁻¹ |
| AFFF(1) IgG (antibody, V domains shown, IgG1/kappa) VH: QVTLRESGPALVKPTQTLTLTCTFSGFSLSTAGMSVGWIRQPPGKALEWLADIWWDDKKDYNPSLKSRLTISKDTSKNQVVLKVTNMDPADTATYYCARSMITNFYFDVWGQGTTVTVSS VL: DIQMTQSPSTLSASVGDRVTITCSASSSVGYMHWYQQKPGKAPKLLIYDTFKLASGVPSRFSGSGSGTEFTLTISSLQPDDFATYYCFQGSFYPFTFGGGTKVEIKR | 0.000274 s⁻¹ and 0.000266 s⁻¹ and 0.000206 s⁻¹ | 108000 M⁻¹ s⁻¹ and 96000 M⁻¹ s⁻¹ and 124000 M⁻¹ s⁻¹ |

These binders were tested against Bac-F (respiratory syncytial virus) (assay: BIAcore, (1:1)).
Chain of Bac-F (respiratory syncytial virus) (P03420 26-524): as the sequence (P03420 26-524) above

| Binder | Kd [nM] | koff [s⁻¹] | kon [M⁻¹ s⁻¹] | number in parentheses after KD (ratio to palivizumab = 1) [fold] |
| --- | --- | --- | --- | --- |
| A4B4 IgG (antibody, V domains shown, IgG1/kappa) VH: QVTLRESGPALVKPTQTLTLTCTFSGFSLSTAGMSVGWIRQPPGKALEWLADIWWDDKKHYNPSLKDRLTISKDTSKNQVVLKVTNMDPADTATYYCARDMIFNFYFDVWGQGTTVTVSS VL: DIQMTQSPSTLSASVGDRVTITCSASSRVGYMHWYQQKPGKAPKLLIYDTFFLDSGVPSRFSGSGSGTEFTLTISSLQPDDFATYYCFQGSGYPFTFGGGTKVEIKR | 0.02 | 1.06e-05 | 434000 | 195 |

These binders were tested against F protein of RSV Long strain on infected HEp-2 cells (respiratory syncytial virus Long strain, UniProt P12568 26-574) (assay: cell-based or functional assay).
Chain of F protein of RSV Long strain on infected HEp-2 cells (P12568 26-574): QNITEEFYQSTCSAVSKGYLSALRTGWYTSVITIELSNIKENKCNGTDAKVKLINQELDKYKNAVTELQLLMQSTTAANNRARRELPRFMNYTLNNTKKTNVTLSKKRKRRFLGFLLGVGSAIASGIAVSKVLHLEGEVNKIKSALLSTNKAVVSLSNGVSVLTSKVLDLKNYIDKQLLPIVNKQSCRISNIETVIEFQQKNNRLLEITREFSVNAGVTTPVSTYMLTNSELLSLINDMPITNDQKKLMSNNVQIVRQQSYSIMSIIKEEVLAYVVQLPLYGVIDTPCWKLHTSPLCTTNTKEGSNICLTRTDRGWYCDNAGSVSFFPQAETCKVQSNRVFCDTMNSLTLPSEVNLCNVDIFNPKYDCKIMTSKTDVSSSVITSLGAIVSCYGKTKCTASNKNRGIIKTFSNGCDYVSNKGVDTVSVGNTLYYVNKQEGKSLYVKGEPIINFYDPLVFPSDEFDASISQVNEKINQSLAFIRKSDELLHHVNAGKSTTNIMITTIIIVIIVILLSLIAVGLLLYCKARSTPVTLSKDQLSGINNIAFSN

| Binder | RSV microneutralization IC50 |
| --- | --- |
| P11d4 Fab (Fab, V domains shown, Fab) VH: QVTLRESGPALVKPTQTLTLTCTFSGFSLSTPGMSVGWIRQPPGKALEWLADIWWDGKKHYNPSLKDRLTISKDTSKNQVVLKVTNMDPADTATYYCARDMIFNWYFDVWGQGTTVTVSS VL: DIQMTQSPSTLSASVGDRVTITCSPSSRVGYMHWYQQKPGKAPKLLIYDTMRLASGVPSRFSGSGSGTEFTLTISSLQPDDFATYYCFQGSGYPFTFGGGTKVEIK | 0.292 µg/ml and 5.84 nM |
